From paper PMC11341859 come the findings set out here.

Assay [1] deals with LY1 ORF1 ΔC-term (1-609) (Betatorquevirus isolate LY1 (TTMV-LY1)). The assay can be described thus: cryo-EM structure; Expi293-derived ΔC-term virus-like particles, 0.4 mg/ml, Titan Krios 300 kV, 2.69 Å.
The target of assay [2] is LY1 ΔARM fragment (ORF1 with residues 2-45 deleted, C-terminus removed by proteolysis in insect cells) (Betatorquevirus isolate LY1 (TTMV-LY1)). The experiment in a line: cryo-EM structure; Sf9-derived ΔARM fragment virus-like particles, 0.3 mg/ml on graphene oxide grid, Glacios 200 kV, I1 symmetry, 3.9 Å.

Substance “LY1 ORF1 ΔC-term (1-609) (domain or fragment)” displayed a stoichiometry N in assay [1] of 60. For the substance “LY1 ΔARM fragment (ORF1 with residues 2-45 deleted, C-terminus removed by proteolysis in insect cells) (domain or fragment)”, the stoichiometry N in assay [2] was found to be 60.
